The text below walks through data of the DeepSol protein solubility set.

The nature of this data set: soluble on expression in E. coli; label from the status in PepcDB or PDB records.
Regarding “SLLLAKHPVISVNGNTAVLVPEETRKLAELVNAKVEINVFHHSPERVEKIKRYLEKHGIEVLAAGDAVLEGLESARRIVDSRGILIADVVLVPLEDGDRCEILKRHGKKVIAIDLNPLSRTARMADITIVDNIIRAFPKMVEMAEEMRKWERERLKEVVENYDNSKVLAEAVEGIIQYLQKVKGELLSP”, the “soluble on expression in E. coli” value was “soluble”.

In the case of “MSLDSGTLGTPPPEQGPTPPTTLPDVPAPVIPSASVTSAASDFLAALHPPVTVPDPAPPPPPAPAAGNPPDTVTGDSVLQRILRGPTGPGTTSLAPAVRYGRQPGPEAPASAPPAAGRAVPGLYHHPVPEPDPVRVEEVSRRIKRWAEDEVQLYPEEWEGQFDGFSVGRYMVGCHPDAPTVDHLMLATRLMVAENAVDDCYCEDHGGSPVGLGGRLLLAHTAIDHFHSTAEYTPTWQASLAADAPRRAYDSAMGYFVRAATPSQSDRYRHDMARLHLGYLAEGAWAQTGHVPEVWEYLAMRQFNNFRPCPTITDTVGGYELPADLHARPDMQRVIALAGNATTIVNDLYSYTKELNSPGRHLNLPVVIAEREQLCERDAYLKAVEVHNELQHSFEAAAADLAEACPLPPVLRFLRGVAAWVDGNHDWHRTNTYRYSLPDFWEGHHHHHH”, the “soluble on expression in E. coli” value is reported as “soluble”. Then “MEGQENKVLFGLENVHYATYSETDGVITYDTPKPLPGGVEISVEPQGDMIKFYADNIVYYQAPNNQGYEGTLTIASIPEGFATDCLGEELDTVDGVLTEKSDAKPKPFALLFEFDGDVKSVRQVLYNCTASRPTVASSTLEHHHHHH”, with “soluble”; and “MKINSPLEAYKYLPQTNCGECGQPTCMAFASTLIDRSGKTTDCPPLIKEKKFAKKLAELDRLLAPEIRQVTIGVGERAANIGGDDVLYRHKLTFFNKTKMFFDVADNMDEAAIVERVKKISDYKKFYVGRNLLLDGVAIRAASNDPAKFATAVKKVIENTELPVILCSFNPAVLKAGLEVAKGKNPLLYAANKDNWKEVGELALEYNVPVVVSAFNDLDGLKTLAKTFAEAGIKDIVLDPGTYPTGKGLKDTFTNFLKIRRAGIMGDTEIAYPIMAMPLTAWMAGIADPVSASYWETVLASIFTIRYGDIMLLHSMEPYATMPEVHLAETIYTDPRSPVAVDSKMYKVGNPTADSPVLFTTNFALTYYTVESDLASNGIDCWLLAVNTDGIGVEAAAAGGQLTADKVKDAFEKSGFDLKSDVTHNSVVIPGLAARLQGDIEDKLNVKVMVGPMDSGRLPGWMEKNWPPKK”, with “not soluble”. Take “MPGFDYKFLEKPKRRLLCPLCGKPMREPVQVSTCGHRFCDTCLQEFLSEGVFKCPEDQLPLDYAKIYPDPELEVQVLGLPIRCIHSEEGCRWSGPLRHLQGHLNTCSFNVIPCPNRCPMKLSRRDLPAHLQHDCPKRRLKCEFCGCDFSGEAYESHEGMCPQESVYCENKCGARMMRRLLAQHATSECPKRTQPCTYCTKEFVFDTIQSHQYQCPRLPVACPNQCGVGTVAREDLPGHLKDSCNTALVLCPFKDSGCKHRCPKLAMARHVEESVKPHLAMMCALVSRQRQELQELRRELEELSVGSDGVLIWKIGSYGRRLQEAKAKPNLECFSPAFYTHKYGYKLQVSAFLNGNGSGEGTHLSLYIRVLPGAFDNLLEWPFARRVTFSLLDQSDPGLAKPQHVTETFHPDPNWKNFQKPGTWRGSLDESSLGFGYPKFISHQDIRKRNYVRDDAVFIRAAVELPRKILS”: the “soluble on expression in E. coli” value was “soluble”. “MSLIPVVLSGGAGTRLWPVSREGQPKPFMRLPDGQTLLGKTYRRAAGLLAGHGEIVTVTNREHYFQSKDQFHAARLGRHRGHFILEPTGRNTAPAIAVAALGLQAEHGDAAVLVVMPADHLIRNEEAFREAVGHAARLAVAGHLVTFGVVPDAAETGFGYIELGDRLDEQGAAKVRRFVEKPDEETRRRYVESGGFLWNSGMFCFTASTLVDELAQHAPALLEQARACLAASAAVKMADGIQHELAGEGFAALPDISIDYALMERSARVAVVPAAFDWSDIGSWGAMSALLDADAEGNRGSGDTLFVDTRNTFVQSDGRLVATVGVDDLVVVDTSDALLIARADRVQEVRRVVQRLKDERHEAYRLHRTVNRPWGSYTVLEEGPRFKIKRIVVRPGERLSLQMHHHRSEHWIVVQGMARVTNGDGARLVNSNESTYIPAGHRHRLENPGVIDLVMIEVQSGEYLGEDDIVRFEDQYGREGHHHHHH”: the “soluble on expression in E. coli” value is on record as “not soluble”. Regarding “GAADKRIDGNGNPETREIKISDYDEITFVGSADFEYEQSDKAPYLSVTIDENLFDYLVTEVEGGTLKIYPKSIKKGFNNNSYDLRPTVYKIKSNSKELKELNTVGSGSFIISKPTKVNRMEINMAGSGNVELRGPVKGYKLECNMAGSGNIIAKDIQLDNLSCSLASSGEIEVIGTVDRASFNVAGSGEIKAFDCQARKAECNIASSGEISVYATQILDANIVGSGEIHYKGDPEISKSIMGSGSINKVK”, the “soluble on expression in E. coli” value is “soluble”.

As to “MAHHHHHHMEAGTSPIRAGSSDGGGSVRGDIFRRHSVNSGENNMNDNKDNDSNTEWSEQFRLIARRMSRALLRNPHPDVQTDKRVMYGVLYELFEQWSERQQRAHSVSLTVEQVGSILRYGEQTLRQASLTAPALNKAQVVVDLIAASPLITIGALTQELRGLQPPVVLTPMAEVLELARLLDVSQGVRTPVGAVNLVHFIALSSTLCPAPDMGALLLLVASNVKRCHLLCAAIYYEWAMIDAQNREGLLLLSRELEEKHQQMCEGFTVDILTPLLTGSFEPFGARPTDPVAVDYLGMGSLPCTGTAEEQQRCHQLAPPSGNELEPTCEDSDTGGHGEGDCESSVEDEYDSDCRDTVDTEFWLRLSS”, the “soluble on expression in E. coli” value is on record as “not soluble”. “MAHHHHHHMFTLCKGYSEDEDEEEVKDIIDNLKEQKKSFEEKINYYKLKGNIERSHITIYTNLGEFQVELYWYHSPKTCLNFYTLCTMGYYDNTIFHRVIPDYIIQGGDPTGTGKGGKSIYGEYFEDEINTELKHTGAGILSMSNNGPNTNGSQFFITLCPLPHLDGKHTIFARVSKNMTCIENIASVQTTATNKPIFDVKILRTSTAVNVD”: the “soluble on expression in E. coli” value was “soluble”. As for “MADFITRAIELDEQYSQAILGINDQNLKVLENLLDCTIFVRGTRATLSGRDFEVSRGIRVLQELQSMAKRGHAISPDAVKNAVAIVAEDTPHSVNAVLASDIVARRGKVIRAKTLGQKDYVDAIDHNTIVFGLGPAGSGKTYLAMAKAVQALQAKQVNRIILTRPAVEAGEKLGFLPGTLNEKIDPYLRPLHDALRDMVDPEIIPKLMEAGIVEVAPLAYMRGRTLNDAFVILDEAQNTTPAQMKMFLTRLGFGSKMVVTGDITQVDLPGGQKSGLRLVRDILRGVEGVHFAELGSDDVVRHQLVGRIVDAYDAYEEQLKDK”, the entry is “not soluble”; as for “ELGIKRESKLEFKLWYDDEKTPEALVFVVQGMGDDISSIQYVGDYMVRQFNTAVVGVNYHCIGNRPQTGSSFFMDDIDKLILKASCEAADIKLPYDVDKIQDYKAMSEIFHFVNNQIVEGKQKGNFTPNYFLNLHVSLQPTKNEYQNFGIMQAQDLLNVALYLKKHAPFDTMGGGIPIIMIGGSHGGYLAHLAAKIAPWLVDGVLDNSAYAKFLWRVVGFGKEIDFMQYSEFATFDFFHHIKTHCSTKTFWTSNSSSPRFFSPARRKIRNLLEEDHLLKQSKCLKTCFISYHSLYDEYVSLKEKTMFYEELEKLGFDVTLHSIT”, “not soluble”. Regarding “MLTIKNLHASVHNNQILRGVNLTINAGEVHAIMGPNGSGKSTLASVLAGREDYAIVDGDVRYFDEDLFELSPEDRAAKGLFLAFQYPVEIPGVNNLYFLKTAVNSIRKTRGEAPFDAIDLMGLVKEKLALVDMDDKFLKRSVNEGFSGGEKKRNEILQMLMLDPRLAILDETDSGLDIDALQTVAKGVNSLRNKERAILLVTHYQRLLDYIKPDFVHVLVNGRIVLSGDQSLALELEKKGYGWL”, the “soluble on expression in E. coli” value was “soluble”. As for “MKCKFCSREAYIKIHYPKMYLCEEHFKEYFERKVSRTIERYKLLTKDERILVAVSGGKDSAVTAYVLKKLGYNIECLHINLGISGYSEKSEEYAKKQCKLIGAPLHIVRIKEILGYGIGEVKTRRPPCSYCGLTKRYIMNKFAYDNGFDAIATGHNLDDEASFLLNNILHWNTEYLAKGGPILPQQGKFIKKVKPLYEVTEREVVAYALAVGLEYIVEECPYARGATTLDMKGVLNELEEKRPGTKFNFVRGYLKKKKLFEPEIKEKEIKECKICRMPSSGDICAFCKFWGLKKEINFKVSSTDEEPFGP”, the entry is “soluble”; as for “MSAEVQESSGKRGKGKQKKMTVRVDFTPMVDMNMLLITFFMLCTTLSKPQTMEISMPSNDKDITEQQKSMVKASQAITLLLGADNKLYYYEGEPNYKDYTSLKETSYGASGLRAVLLQKNAAAVNQVRALKQQKLDLKITDDEYKKKVSEIKSGKNTPTVIIKATDDASYMNLIDALDEMQICNIGKYVITDIAEADEFLIKNYDAKGELSQNLADK”, “not soluble”; as for “MNKKIVMSFLAATVVTISGCASFADMAGADSATLNASAAQGFSKMTTEARQKGQLDTSSNTYRRINTVMQRMIPYANQMNQTGQPFQWQLAVIKSDTVNAYVAPGGKVVFYTGIVNKLNLSDAEIAAVMGHEMTHALEEHAKSKIGAEALTGLALNIGKAYAGDSIGQAGSAALDLGSQVGVGLPYSRNLESRADYGGLMLMAKAGYNPQAAITLWEKMNRMDGAGGPSFLSTHPSNNQRIQDMRKNLPAAMAVYNNRRLEHHHHHH”, “not soluble”. On to “MNITKAFCLSIALLGASNMQAITNSDFVIQQDNTKINNYQTNRPETSKRLFVSQAVEQQIAHIKQLLTNARLAWMFENCFPNTLDTTVHFDGKDDTFVYTGDIHAMWLRDSGAQVWPYVQLANKDAELKKMLAGVIKRQFKCINIDPYANAFNMNSEGGEWMSDLTDMKPELHERKWEIDSLCYPIRLAYHYWKTTGDASIFSDEWLTAIAKVLKTFKEQQRKEDPKGPYRFQRKTERALDTMTNDGWGNPVKPVGLIASAFRPSDDATTFQFLVPSNFFAVTSLRKAAEILNTVNKKPDLAKECTTLSNEVETALKKYAVYNHPKYGKIYAFEVDGFGNQLLMDDANVPSLIALPYLGDVKVNDPIYQNTRKFVWSEDNPYFFKGTAGEGIGGPHIGYDMIWPMSIMMKAFTSQNDAEIKTCIKMLMDTDAGTGFMHESFHKNDPKNFTRSWFAWQNTLFGELILKLVNEGKVDLLNSIQLEHHHHHH”, for which the “soluble on expression in E. coli” value is “not soluble”. As for “MGSDKIHHHHHHETQPESAAFTAPSTDNPIRINFNENPLGMSPKAQAAARDAVVKANRYAKNEILMLGNKLAAHHQVEAPSILLTAGSSEGIRAAIEAYASLEAQLVIPELTYGDGEHFAKIAGMKVTKVKMLDNWAFDIEGLKAAVAAYSGPSIVYLVNPNNPTGTITPADVIEPWIASKPANTMFIVDEAYAEFVNDPRFRSISPMITQGAENIILLKTFSKIHAMAGMRVGYAVAHPTVIALMGRYVAGEKINFSGVDAALASMNDSAFITYSKKSNDVSRQILLKALEDLKLPYLPSEGNFVFHQLVVPLKDYQTHMADAGVLIGRAFPPADNWCRISLGTPQEMQWVADTMREFRKKSWI”, the entry is “not soluble”; as for “MALTDRLLDAWYKGHPALTLLRPLESLYRRVVDGKRAKFLAGEGDIYRAPVPVIVVGNITIGGTGKTPLILWMIEHCQRKGLRVGVVSRGYGAKPPSLPWRVQPDQSASEAGDEPLLIVQRSGVPLMIDPDRSRAVQALLAAEPLDLILSDDGLQHYRLARDLELVLIDAARGLGNRRCLPAGPLREPVERLSSVDALLYNGATADRDDGYAFTLKPSALINLRSGERQPVSYFPAGQALHAVAGIGNPQRFFNTLEGLHWRPVTHAFADHALYSVQALTFTPALPLVMTEKDAVKCRAFAADDWWYLAVDAVPSDAFVGWFDEQLLRLSPLEHHHHHH”, “not soluble”.
